B1: library; numbered along this chain (parent)
chain: MRKPRAAVGSGHRKQAASQEGRQKHAKNNSQAKPSACDGLARQPEEVVLQASVSSYHLFRDVAEVTAFRGSLLSWYDQEKRDLPWRRRAEDEMDLDRRAYAVWVSEVMLQQTQVATVINYYTGWMQKWPTLQDLASASLEEVNQLWAGLGYYSRGRRLQEGARKVVEELGGHMPRTAETLQQLLPGVGRYTAGAIASIAFGQATGVVDGNVARVLCRVRAIGADPSSTLVSQQLWGLAQQLVDPARPGDFNQAAMELGATVCTPQRPLCSQCPVESLCRARQRVEQEQLLASGSLSGSPDVEECAPNTGQCHLCLPPSEPWDQTLGVVNFPRKASRKPPREESSATCVLEQPGALGAQILLVQRPNSGLLAGLWEFPSVTWEPSEQLQRKALLQELQRWAGPLPATHLRHLGEVVHTFSHIKLTYQVYGLALEGQTPVTTVPPGARWLTQEEFHTAAVSTAMKKVFRVYQGQQPGTCMGSKRSQVSSPCSRKKPRMGQQVLDNFFRSHISTDAHSLNSAAQ
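Note: cells sorted at 72 h after reporter transfection.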

The data set covers variants of B1. The data set is described as follows: 8OG:A repair function score (normalized; synonymous = 0, nonsense = -1) (normalized log-likelihood score); higher = more repair activity (WT-like). Conditions: with 8OG:A DNA repair reporter (GFP) in HEK-293 MUTYH KO cells. The procedure, abridged:
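Lentiviral MUTYH cDNA NNN codon-scan libraries were expressed in MUTYH knockout HEK-293 cells with 10 pg/ml doxycycline, and the cells received an 8OG:A GFP repair reporter together with mCherry. At 72 h, viable mCherry+ cells went into GFP+ (repair) or GFP− bins, three replicates per tile, before tile amplicons were sequenced. A repair function score was then built from per-tile Rosace fitness scores, anchored on the synonymous and nonsense distributions. Synonymous medians sat at 0 and nonsense at -1, and variants under 300 counts per million at the start were left out.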
MRKPRAAVGSGHRKQAASQEGRQKHAKNNSQAKPSACDGLARQPEEVVLQASVSEYHLFRDVAEVTAFRGSLLSWYDQEKRDLPWRRRAEDEMDLDRRAYAVWVSEVMLQQTQVATVINYYTGWMQKWPTLQDLASASLEEVNQLWAGLGYYSRGRRLQEGARKVVEELGGHMPRTAETLQQLLPGVGRYTAGAIASIAFGQATGVVDGNVARVLCRVRAIGADPSSTLVSQQLWGLAQQLVDPARPGDFNQAAMELGATVCTPQRPLCSQCPVESLCRARQRVEQEQLLASGSLSGSPDVEECAPNTGQCHLCLPPSEPWDQTLGVVNFPRKASRKPPREESSATCVLEQPGALGAQILLVQRPNSGLLAGLWEFPSVTWEPSEQLQRKALLQELQRWAGPLPATHLRHLGEVVHTFSHIKLTYQVYGLALEGQTPVTTVPPGARWLTQEEFHTAAVSTAMKKVFRVYQGQQPGTCMGSKRSQVSSPCSRKKPRMGQQVLDNFFRSHISTDAHSLNSAAQ [S55E]: the “8OG:A repair function score” value is -0.00704.
With MRKPRAAVGSGHRKQAASQEGRQKHAKNNSQAKPSACDGLARQPEEVVLQASVSSYHLFRDVAEVTAFRGSLLSWYDQEKRDLPWRRRAEDEMDLDRRAYAVWVSEVMLQQTQVATVINYYTGWMQKWPTLQDLASASLEEVNQLWAGLGYYSRGRRLQEGARKVVEELGGHMPRTAETLQQLLPGVGRYTAGAIASIAFGQATGVVDGNVARVLCRVRAIGADPSSTLVSQQLWGLAQQLVDPARPGDFNQAAMELGATHCTPQRPLCSQCPVESLCRARQRVEQEQLLASGSLSGSPDVEECAPNTGQCHLCLPPSEPWDQTLGVVNFPRKASRKPPREESSATCVLEQPGALGAQILLVQRPNSGLLAGLWEFPSVTWEPSEQLQRKALLQELQRWAGPLPATHLRHLGEVVHTFSHIKLTYQVYGLALEGQTPVTTVPPGARWLTQEEFHTAAVSTAMKKVFRVYQGQQPGTCMGSKRSQVSSPCSRKKPRMGQQVLDNFFRSHISTDAHSLNSAAQ [V261H], the “8OG:A repair function score” value was -0.25.
With MRKPRAAVGSGHRKQAASQEGRQKHAKNNSQAKPSACDGLARQPEEVVLQAGVSSYHLFRDVAEVTAFRGSLLSWYDQEKRDLPWRRRAEDEMDLDRRAYAVWVSEVMLQQTQVATVINYYTGWMQKWPTLQDLASASLEEVNQLWAGLGYYSRGRRLQEGARKVVEELGGHMPRTAETLQQLLPGVGRYTAGAIASIAFGQATGVVDGNVARVLCRVRAIGADPSSTLVSQQLWGLAQQLVDPARPGDFNQAAMELGATVCTPQRPLCSQCPVESLCRARQRVEQEQLLASGSLSGSPDVEECAPNTGQCHLCLPPSEPWDQTLGVVNFPRKASRKPPREESSATCVLEQPGALGAQILLVQRPNSGLLAGLWEFPSVTWEPSEQLQRKALLQELQRWAGPLPATHLRHLGEVVHTFSHIKLTYQVYGLALEGQTPVTTVPPGARWLTQEEFHTAAVSTAMKKVFRVYQGQQPGTCMGSKRSQVSSPCSRKKPRMGQQVLDNFFRSHISTDAHSLNSAAQ [S52G], the “8OG:A repair function score” value is -0.00057.
In the case of MRKPRAAVGSGHRKQAASQEGRQKHAKNNSQAKPSACDGLARQPEEVVLQASVSSYHLFRDVAEVTAFRGSLLSWYDQEKRDLPWRRRAEDEMDLDRRAYAVWVSEVMLQQTQVATVINYYTGWMQKWPTLQDLASASLEEVNQLWAGLGYYSRGRRLQEGARKVVEELGGHMPRTAETLQQLLPGVGRPTAGAIASIAFGQATGVVDGNVARVLCRVRAIGADPSSTLVSQQLWGLAQQLVDPARPGDFNQAAMELGATVCTPQRPLCSQCPVESLCRARQRVEQEQLLASGSLSGSPDVEECAPNTGQCHLCLPPSEPWDQTLGVVNFPRKASRKPPREESSATCVLEQPGALGAQILLVQRPNSGLLAGLWEFPSVTWEPSEQLQRKALLQELQRWAGPLPATHLRHLGEVVHTFSHIKLTYQVYGLALEGQTPVTTVPPGARWLTQEEFHTAAVSTAMKKVFRVYQGQQPGTCMGSKRSQVSSPCSRKKPRMGQQVLDNFFRSHISTDAHSLNSAAQ [Y190P], the “8OG:A repair function score” value was -0.905.
The value for MRKPRAAVGSGHRKQAASQEGRQKHAKNNSQAKPSACDGLARSPEEVVLQASVSSYHLFRDVAEVTAFRGSLLSWYDQEKRDLPWRRRAEDEMDLDRRAYAVWVSEVMLQQTQVATVINYYTGWMQKWPTLQDLASASLEEVNQLWAGLGYYSRGRRLQEGARKVVEELGGHMPRTAETLQQLLPGVGRYTAGAIASIAFGQATGVVDGNVARVLCRVRAIGADPSSTLVSQQLWGLAQQLVDPARPGDFNQAAMELGATVCTPQRPLCSQCPVESLCRARQRVEQEQLLASGSLSGSPDVEECAPNTGQCHLCLPPSEPWDQTLGVVNFPRKASRKPPREESSATCVLEQPGALGAQILLVQRPNSGLLAGLWEFPSVTWEPSEQLQRKALLQELQRWAGPLPATHLRHLGEVVHTFSHIKLTYQVYGLALEGQTPVTTVPPGARWLTQEEFHTAAVSTAMKKVFRVYQGQQPGTCMGSKRSQVSSPCSRKKPRMGQQVLDNFFRSHISTDAHSLNSAAQ [Q43S] was -0.0281; that for MRKPRAAVGSGHRKQAASQEGRQKHAKNNSQAKPSACDGLARQPEEVVLQASVSSYHLFRDVAEVTAFRGSLLSWYDQEKRDLPWRRRAEDEMDLDRRAYAVWVSEVMLQQTQVATVINYYTGWMQKWPTLQDLASASLEEVNQLWAGLGYYSRGRRLQEGARKVVEELGGHMPRTAETLQQLLPGVGRYTAGAIASIAFGQATGVVDGNVARVLCRVRAIGADPSSTLVSQQLWGLAQQLVDPARPGDFNQAAMELGATVCTPQRPLCSQCPVESLCRARQRVEQEQLLASGSLSGSPDVEECAPNTGQCHLCLPPSEPWDQTLGVVNFPRKASRKPPREESSATCVLEQPGALGAQILLVQRPNSGLLAGLWEFPSVTWEPSEQLQRKALLQELQRWAGPLPATHLRHLGEVVHTFSHIKLTYQVYGLALEGQTPVTTVPPGARWLTQEEFHTAAVSTAPKKVFRVYQGQQPGTCMGSKRSQVSSPCSRKKPRMGQQVLDNFFRSHISTDAHSLNSAAQ [M462P] was -0.578; that for MRKPRAAVGSGHRKQAASQEGRQKHAKNNSQAKPSACDGLARQPEEVVLQASVSSYHLFRDVAEVTAFRGSLLSWYDQEKRDLPWRRRAEDEMDLDRRAYAVWVSEVMLQQTQVATVINYYTGWMQKWPTLQDLASASLEEVNQLWAGLGYYSRGRRLQEGARKVVEELGGHMPRTAETLQQLLPGVGRYTAGAIASIAFGQATGVVDGNVARVLCRVRAIGADPSSTLVSQQLWGLAQQLVIPARPGDFNQAAMELGATVCTPQRPLCSQCPVESLCRARQRVEQEQLLASGSLSGSPDVEECAPNTGQCHLCLPPSEPWDQTLGVVNFPRKASRKPPREESSATCVLEQPGALGAQILLVQRPNSGLLAGLWEFPSVTWEPSEQLQRKALLQELQRWAGPLPATHLRHLGEVVHTFSHIKLTYQVYGLALEGQTPVTTVPPGARWLTQEEFHTAAVSTAMKKVFRVYQGQQPGTCMGSKRSQVSSPCSRKKPRMGQQVLDNFFRSHISTDAHSLNSAAQ [D243I] was -0.858.
Take MRKPRAAVGSGHRKQAASQEGRQKHAKNNSQAKPSACDGLARQPEEVVLQASVSSYHLFRDVAEVTAFRGSLLSWYDQEKRDLPWRRRAEDEMDLDRRAYAVWVSEVMLQQTQVATVINYYTGWMQKWPTLQDLASASLEEVNQLWAGLGYYSRGRRLQEGARKVVEELGGHMPRTAETLQQLLPGVGCYTAGAIASIAFGQATGVVDGNVARVLCRVRAIGADPSSTLVSQQLWGLAQQLVDPARPGDFNQAAMELGATVCTPQRPLCSQCPVESLCRARQRVEQEQLLASGSLSGSPDVEECAPNTGQCHLCLPPSEPWDQTLGVVNFPRKASRKPPREESSATCVLEQPGALGAQILLVQRPNSGLLAGLWEFPSVTWEPSEQLQRKALLQELQRWAGPLPATHLRHLGEVVHTFSHIKLTYQVYGLALEGQTPVTTVPPGARWLTQEEFHTAAVSTAMKKVFRVYQGQQPGTCMGSKRSQVSSPCSRKKPRMGQQVLDNFFRSHISTDAHSLNSAAQ [R189C]: the “8OG:A repair function score” value was -0.258.
Turning to MRKPRAAVGSGHRKQAASQEGRQKHAKNNSQAKPSACDGLARQPEEVVLQASVSSYHLFRDVAEVTAFRGSLLSWYDQEKRDLPWRRRAEDEMDLDRRAYAVWVSEVMLQQTQVATVINYYTGWMQKWPTLQDLASASLEEVNQLWAGLGYYSRGRRLQEGARKVVEELGGHMPRTAETLQQLLPGVGRYTAGAIASIAFGQATGVVDGNVARVLCRVRAIGADPSSTLVSQQLWGLAQQLVDPARPGDFNQAAMELGATVCTPQRPLCSQCPVESLCRARQRVEQEQLLASGSLSGSPDVEECAPNTGQCHLCLPPSEGWDQTLGVVNFPRKASRKPPREESSATCVLEQPGALGAQILLVQRPNSGLLAGLWEFPSVTWEPSEQLQRKALLQELQRWAGPLPATHLRHLGEVVHTFSHIKLTYQVYGLALEGQTPVTTVPPGARWLTQEEFHTAAVSTAMKKVFRVYQGQQPGTCMGSKRSQVSSPCSRKKPRMGQQVLDNFFRSHISTDAHSLNSAAQ [P320G], the “8OG:A repair function score” value stood at 0.00385.
Consider MRKPRAAVGSGHRKQAASQEGRQKHAKNNSQAKPSACDGLARQPEEVVLQASVSSYHLFRDVAEVTAFRGSLLSWYDQEKRDLPWRRRAEDEMDLDRRAYAVWVSEVMLQQTQVATVINYYTGWMQKWPTLQDLASASLEEVNQLWAGLGYYSRGRRLQEGARKVVEELGGHMPRTAETLQQLLPGVGRYTAGAIASIAFGQATGVVDGNVARVLCRVRAIGADPSSTLVSQQLWGLAQQLVDPARPGDFNQAAMELGATVCTPQRPLCSQCPVESLCRARQRVEQEQLLASGSLSGSPDVEECAPNTGQCHLCLPPSEPWDQTLGVVNFPRKASRKPPREESSATCVLEQPGALGAQILLVQRPNSGLLAGLWEFPSVTWEPSEQLQRKAPLQELQRWAGPLPATHLRHLGEVVHTFSHIKLTYQVYGLALEGQTPVTTVPPGARWLTQEEFHTAAVSTAMKKVFRVYQGQQPGTCMGSKRSQVSSPCSRKKPRMGQQVLDNFFRSHISTDAHSLNSAAQ [L392P], for which the “8OG:A repair function score” value is -1.09.
In the case of MRKPRAAVGSGHRKQAASQEGRQKHAKNNSQAKPSACDGLARQPEEVVLQASVSSYHLFRDVAEVTAFRGSLLSWYDQEKRDLPWRKRAEDEMDLDRRAYAVWVSEVMLQQTQVATVINYYTGWMQKWPTLQDLASASLEEVNQLWAGLGYYSRGRRLQEGARKVVEELGGHMPRTAETLQQLLPGVGRYTAGAIASIAFGQATGVVDGNVARVLCRVRAIGADPSSTLVSQQLWGLAQQLVDPARPGDFNQAAMELGATVCTPQRPLCSQCPVESLCRARQRVEQEQLLASGSLSGSPDVEECAPNTGQCHLCLPPSEPWDQTLGVVNFPRKASRKPPREESSATCVLEQPGALGAQILLVQRPNSGLLAGLWEFPSVTWEPSEQLQRKALLQELQRWAGPLPATHLRHLGEVVHTFSHIKLTYQVYGLALEGQTPVTTVPPGARWLTQEEFHTAAVSTAMKKVFRVYQGQQPGTCMGSKRSQVSSPCSRKKPRMGQQVLDNFFRSHISTDAHSLNSAAQ [R87K] it was 0.00471.
As to MRKPRAAVGSGHRKQAASQEGRQKHAKNNSQAKPSACDGLARQPEEVVLQASVSSYHLFRDVAEVTAFRGSLLSWYDQEKRDLPWRRRAEDEMDLDRRAYAVWVSEVMLQQCQVATVINYYTGWMQKWPTLQDLASASLEEVNQLWAGLGYYSRGRRLQEGARKVVEELGGHMPRTAETLQQLLPGVGRYTAGAIASIAFGQATGVVDGNVARVLCRVRAIGADPSSTLVSQQLWGLAQQLVDPARPGDFNQAAMELGATVCTPQRPLCSQCPVESLCRARQRVEQEQLLASGSLSGSPDVEECAPNTGQCHLCLPPSEPWDQTLGVVNFPRKASRKPPREESSATCVLEQPGALGAQILLVQRPNSGLLAGLWEFPSVTWEPSEQLQRKALLQELQRWAGPLPATHLRHLGEVVHTFSHIKLTYQVYGLALEGQTPVTTVPPGARWLTQEEFHTAAVSTAMKKVFRVYQGQQPGTCMGSKRSQVSSPCSRKKPRMGQQVLDNFFRSHISTDAHSLNSAAQ [T112C], the “8OG:A repair function score” value is -0.907.
